In paper PMC4253074 (Journal of molecular biology, 2014):
Substitutions are numbered along the chain they refer to. Each block holds one binder with its values, some of them ahead of it.

Key:
Assay in all cases: cross-linking
[1] = target: PDE6 catalytic dimer (Pαβ) (bovine, UniProt P11541 1-859; P23439 1-853)
[2] = target: T1, PDE6 α-subunit (Pα), catalytic subunit of bovine rod photoreceptor phosphodiesterase (bovine, UniProt P11541 1-859)
T1 sequence (looked up): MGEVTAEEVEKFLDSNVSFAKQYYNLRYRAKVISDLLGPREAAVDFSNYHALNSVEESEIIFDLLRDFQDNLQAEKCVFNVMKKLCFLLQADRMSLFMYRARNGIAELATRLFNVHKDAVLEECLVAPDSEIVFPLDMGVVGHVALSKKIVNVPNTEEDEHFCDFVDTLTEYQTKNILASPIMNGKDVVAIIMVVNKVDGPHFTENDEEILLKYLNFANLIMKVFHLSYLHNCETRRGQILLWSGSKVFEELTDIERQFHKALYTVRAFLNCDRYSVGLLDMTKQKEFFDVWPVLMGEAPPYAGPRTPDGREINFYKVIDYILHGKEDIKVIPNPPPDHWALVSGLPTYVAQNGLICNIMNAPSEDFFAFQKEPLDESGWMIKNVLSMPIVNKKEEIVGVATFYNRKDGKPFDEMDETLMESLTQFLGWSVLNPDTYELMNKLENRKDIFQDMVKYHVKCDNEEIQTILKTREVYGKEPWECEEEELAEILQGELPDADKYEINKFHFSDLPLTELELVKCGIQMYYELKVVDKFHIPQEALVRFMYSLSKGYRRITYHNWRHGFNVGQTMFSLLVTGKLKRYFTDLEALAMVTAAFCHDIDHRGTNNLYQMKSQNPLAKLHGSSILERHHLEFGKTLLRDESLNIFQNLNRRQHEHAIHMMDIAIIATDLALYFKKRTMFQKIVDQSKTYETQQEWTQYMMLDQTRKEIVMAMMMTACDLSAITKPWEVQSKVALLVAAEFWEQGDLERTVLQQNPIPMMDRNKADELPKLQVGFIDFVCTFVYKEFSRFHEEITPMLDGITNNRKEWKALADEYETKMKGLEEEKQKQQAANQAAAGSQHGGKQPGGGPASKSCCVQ

[3] = target: T2, PDE6 β-subunit (Pβ), catalytic subunit of bovine rod photoreceptor phosphodiesterase (bovine, UniProt P23439 1-853)
T2 sequence (looked up): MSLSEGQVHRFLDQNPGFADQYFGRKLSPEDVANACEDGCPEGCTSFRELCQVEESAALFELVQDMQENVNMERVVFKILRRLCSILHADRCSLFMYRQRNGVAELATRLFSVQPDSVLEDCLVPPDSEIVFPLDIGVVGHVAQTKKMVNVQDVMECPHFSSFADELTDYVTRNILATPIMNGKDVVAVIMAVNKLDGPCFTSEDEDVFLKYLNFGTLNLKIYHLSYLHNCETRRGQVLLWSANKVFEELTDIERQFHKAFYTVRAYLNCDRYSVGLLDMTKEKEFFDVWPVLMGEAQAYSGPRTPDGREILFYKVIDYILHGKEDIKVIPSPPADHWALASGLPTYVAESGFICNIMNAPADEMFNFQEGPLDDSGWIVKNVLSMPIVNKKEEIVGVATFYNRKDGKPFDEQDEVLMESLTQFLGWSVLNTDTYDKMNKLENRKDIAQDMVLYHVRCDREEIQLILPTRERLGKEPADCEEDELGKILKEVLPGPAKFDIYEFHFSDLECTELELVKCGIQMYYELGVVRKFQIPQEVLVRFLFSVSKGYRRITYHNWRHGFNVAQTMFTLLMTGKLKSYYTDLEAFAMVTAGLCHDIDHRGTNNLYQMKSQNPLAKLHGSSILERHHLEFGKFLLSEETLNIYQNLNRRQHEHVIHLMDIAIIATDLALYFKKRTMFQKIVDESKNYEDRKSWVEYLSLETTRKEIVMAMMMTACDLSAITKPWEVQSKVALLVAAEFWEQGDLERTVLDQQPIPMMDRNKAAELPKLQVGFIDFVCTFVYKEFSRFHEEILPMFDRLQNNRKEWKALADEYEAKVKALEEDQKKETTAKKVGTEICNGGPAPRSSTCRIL

binding result [1]: binds
B1: PDE6 inhibitory γ-subunit (Pγ), endogenous, in the purified PDE6 holoenzyme (natural protein, bovine, UniProt P04972 1-87, looked up)
chain: MNLEPPKAEIRSATRVMGGPVTPRKGPPKFKQRQTRQFKSKPPKKGVQGFGDDIPGMEGLGTDITVICPWEAFNHLELHELAQYGII

binding result [1]: binds
B2: wild-type Pγ, recombinant (Pγ 1–87) (natural protein, bovine, UniProt P04972 1-87, looked up)
chain: B1 chain

binding result [2]: binds
binding result [3]: binds
B3: Pγ 73C-MBP (natural protein, bovine, UniProt P04972 1-87, looked up)
chain: B1 chain with C68S, F73C
modifications: 4-(N-maleimido)benzophenone (MBP) on Cys73

binding result [3]: binds
B4: Pγ 30C-MBP (natural protein, bovine, UniProt P04972 1-87, looked up)
chain: B1 chain with F30C, C68S
modifications: 4-(N-maleimido)benzophenone (MBP) on Cys30
